Laboratory results: patent US20140023715A1 (EMORY UNIVERSITY, published 2014)

Molecular target: T1, uPAR (species and form not stated)
T1 construct: also called uPA receptor
T1 sequence (Q03405 23-305): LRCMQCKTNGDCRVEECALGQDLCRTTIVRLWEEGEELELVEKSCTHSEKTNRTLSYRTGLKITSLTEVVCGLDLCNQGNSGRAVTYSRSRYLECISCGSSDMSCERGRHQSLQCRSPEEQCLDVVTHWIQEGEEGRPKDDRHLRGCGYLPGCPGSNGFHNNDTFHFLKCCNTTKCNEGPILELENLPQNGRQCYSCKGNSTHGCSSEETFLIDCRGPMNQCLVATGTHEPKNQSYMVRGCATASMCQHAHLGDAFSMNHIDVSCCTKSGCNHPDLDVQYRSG

B1: recombinant mouse amino terminal fragment (ATF, 135 aa) of uPA (ligand, UniProt P06869 21-155, looked up)
chain: GSVLGAPDESNCGCQNGGVCVSYKYFSRIRRCSCPRKFQGEHCEIDASKTCYHGNGDSYRGKANTDTKGRPCLAWNAPAVLQKPYNAHRPDAISLGLGKHNYCRNPDNQKRPWCYVQIGLRQFVQECMVHDCSLS
notes: range 1-135; 17 kDa, made in E. coli BL21; also called mouse ATF peptide; murine ATF; not shown: tag from vector pET101/D-TOPO (purified on Ni-NTA)
Kd: < 1 nM
